B1: RBM26_HUMAN (protein, UniProt Q5T8P6 1-1007, looked up)
RNA-binding protein 26: MVSKMIIENFEALKSWLSKTLEPICDADPSALAKYVLALVKKDKSEKELKALCIDQLDVFLQKETQIFVEKLFDAVNTKSYLPPPEQPSSGSLKVEFFPHQEKDIKKEEITKEEEREKKFSRRLNHSPPQSSSRYRENRSRDERKKDDRSRKRDYDRNPPRRDSYRDRYNRRRGRSRSYSRSRSRSWSKERLRERDRDRSRTRSRSRTRSRERDLVKPKYDLDRTDPLENNYTPVSSVPSISSGHYPVPTLSSTITVIAPTHHGNNTTESWSEFHEDQVDHNSYVRPPMPKKRCRDYDEKGFCMRGDMCPFDHGSDPVVVEDVNLPGMLPFPAQPPVVEGPPPPGLPPPPPILTPPPVNLRPPVPPPGPLPPSLPPVTGPPPPLPPLQPSGMDAPPNSATSSVPTVVTTGIHHQPPPAPPSLFTADTYDTDGYNPEAPSITNTSRPMYRHRVHAQRPNLIGLTSGDMDLPPREKPPNKSSMRIVVDSESRKRTIGSGEPGVPTKKTWFDKPNFNRTNSPGFQKKVQFGNENTKLELRKVPPELNNISKLNEHFSRFGTLVNLQVAYNGDPEGALIQFATYEEAKKAISSTEAVLNNRFIKVYWHREGSTQQLQTTSPKVMQPLVQQPILPVVKQSVKERLGPVPSSTIEPAEAQSASSDLPQNVTKLSVKDRLGFVSKPSVSATEKVLSTSTGLTKTVYNPAALKAAQKTLLVSTSAVDNNEAQKKKQEALKLQQDVRKRKQEILEKHIETQKMLISKLEKNKTMKSEDKAEIMKTLEVLTKNITKLKDEVKAASPGRCLPKSIKTKTQMQKELLDTELDLYKKMQAGEEVTELRRKYTELQLEAAKRGILSSGRGRGIHSRGRGAVHGRGRGRGRGRGVPGHAVVDHRPRALEISAFTESDREDLLPHFAQYGEIEDCQIDDSSLHAVITFKTRAEAEAAAVHGARFKGQDLKLAWNKPVTNISAVETEEVEPDEEEFQEESLVDDSLLQDDDEEEEDNESRSWRR
B2: CAND1_HUMAN (protein, UniProt Q86VP6 2-1230, looked up)
Cullin-associated …: ASASYHISNLLEKMTSSDKDFRFMATNDLMTELQKDSIKLDDDSERKVVKMILKLLEDKNGEVQNLAVKCLGPLVSKVKEYQVETIVDTLCTNMLSDKEQLRDISSIGLKTVIGELPPASSGSALAANVCKKITGRLTSAIAKQEDVSVQLEALDIMADMLSRQGGLLVNFHPSILTCLLPQLTSPRLAVRKRTIIALGHLVMSCGNIVFVDLIEHLLSELSKNDSMSTTRTYIQCIAAISRQAGHRIGEYLEKIIPLVVKFCNVDDDELREYCIQAFESFVRRCPKEVYPHVSTIINICLKYLTYDPNYNYDDEDEDENAMDADGGDDDDQGSDDEYSDDDDMSWKVRRAAAKCLDAVVSTRHEMLPEFYKTVSPALISRFKEREENVKADVFHAYLSLLKQTRPVQSWLCDPDAMEQGETPLTMLQSQVPNIVKALHKQMKEKSVKTRQCCFNMLTELVNVLPGALTQHIPVLVPGIIFSLNDKSSSSNLKIDALSCLYVILCNHSPQVFHPHVQALVPPVVACVGDPFYKITSEALLVTQQLVKVIRPLDQPSSFDATPYIKDLFTCTIKRLKAADIDQEVKERAISCMGQIICNLGDNLGSDLPNTLQIFLERLKNEITRLTTVKALTLIAGSPLKIDLRPVLGEGVPILASFLRKNQRALKLGTLSALDILIKNYSDSLTAAMIDAVLDELPPLISESDMHVSQMAISFLTTLAKVYPSSLSKISGSILNELIGLVRSPLLQGGALSAMLDFFQALVVTGTNNLGYMDLLRMLTGPVYSQSTALTHKQSYYSIAKCVAALTRACPKEGPAVVGQFIQDVKNSRSTDSIRLLALLSLGEVGHHIDLSGQLELKSVILEAFSSPSEEVKSAASYALGSISVGNLPEYLPFVLQEITSQPKRQYLLLHSLKEIISSASVVGLKPYVENIWALLLKHCECAEEGTRNVVAECLGKLTLIDPETLLPRLKGYLISGSSYARSSVVTAVKFTISDHPQPIDPLLKNCIGDFLKTLEDPDLNVRRVALVTFNSAAHNKPSLIRDLLDTVLPHLYNETKVRKELIREVEMGPFKHTVDDGLDIRKAAFECMYTLLDSCLDRLDIFEFLNHVEDGLKDHYDIKMLTFLMLVRLSTLCPSAVLQRLDRLVEPLRATCTTKVKANSVKQEFEKQDELKRSAMRAVAALLTIPEAEKSPLMSEFQSQISSNPELAAIFESIQKDSSSTNLESMDTS
B3: TR150_HUMAN (protein, UniProt Q9Y2W1 2-955, looked up)
Thyroid hormone …: SKTNKSKSGSRSSRSRSASRSRSRSFSKSRSRSRSLSRSRKRRLSSRSRSRSYSPAHNRERNHPRVYQNRDFRGHNRGYRRPYYFRGRNRGFYPWGQYNRGGYGNYRSNWQNYRQAYSPRRGRSRSRSPKRRSPSPRSRSHSRNSDKSSSDRSRRSSSSRSSSNHSRVESSKRKSAKEKKSSSKDSRPSQAAGDNQGDEAKEQTFSGGTSQDTKASESSKPWPDATYGTGSASRASAVSELSPRERSPALKSPLQSVVVRRRSPRPSPVPKPSPPLSSTSQMGSTLPSGAGYQSGTHQGQFDHGSGSLSPSKKSPVGKSPPSTGSTYGSSQKEESAASGGAAYTKRYLEEQKTENGKDKEQKQTNTDKEKIKEKGSFSDTGLGDGKMKSDSFAPKTDSEKPFRGSQSPKRYKLRDDFEKKMADFHKEEMDDQDKDKAKGRKESEFDDEPKFMSKVIGANKNQEEEKSGKWEGLVYAPPGKEKQRKTEELEEESFPERSKKEDRGKRSEGGHRGFVPEKNFRVTAYKAVQEKSSSPPPRKTSESRDKLGAKGDFPTGKSSFSITREAQVNVRMDSFDEDLARPSGLLAQERKLCRDLVHSNKKEQEFRSIFQHIQSAQSQRSPSELFAQHIVTIVHHVKEHHFGSSGMTLHERFTKYLKRGTEQEAAKNKKSPEIHRRIDISPSTFRKHGLAHDEMKSPREPGYKAEGKYKDDPVDLRLDIERRKKHKERDLKRGKSRESVDSRDSSHSRERSAEKTEKTHKGSKKQKKHRRARDRSRSSSSSSQSSHSYKAEEYTEETEEREESTTGFDKSRLGTKDFVGPSERGGGRARGTFQFRARGRGWGRGNYSGNNNNNSNNDFQKRNREEEWDPEYTPKSKKYYLHDDREGEGSDKWVSRGRGRGAFPRGRGRFMFRKSSTSPKWAHDKFSGEEGEIEDDESGTENREEKDNIQPTTE
B4: SF3B1_HUMAN (protein, UniProt O75533 1-1304, looked up)
Splicing factor 3B subunit 1: MAKIAKTHEDIEAQIREIQGKKAALDEAQGVGLDSTGYYDQEIYGGSDSRFAGYVTSIAATELEDDDDDYSSSTSLLGQKKPGYHAPVALLNDIPQSTEQYDPFAEHRPPKIADREDEYKKHRRTMIISPERLDPFADGGKTPDPKMNARTYMDVMREQHLTKEEREIRQQLAEKAKAGELKVVNGAAASQPPSKRKRRWDQTADQTPGATPKKLSSWDQAETPGHTPSLRWDETPGRAKGSETPGATPGSKIWDPTPSHTPAGAATPGRGDTPGHATPGHGGATSSARKNRWDETPKTERDTPGHGSGWAETPRTDRGGDSIGETPTPGASKRKSRWDETPASQMGGSTPVLTPGKTPIGTPAMNMATPTPGHIMSMTPEQLQAWRWEREIDERNRPLSDEELDAMFPEGYKVLPPPAGYVPIRTPARKLTATPTPLGGMTGFHMQTEDRTMKSVNDQPSGNLPFLKPDDIQYFDKLLVDVDESTLSPEEQKERKIMKLLLKIKNGTPPMRKAALRQITDKAREFGAGPLFNQILPLLMSPTLEDQERHLLVKVIDRILYKLDDLVRPYVHKILVVIEPLLIDEDYYARVEGREIISNLAKAAGLATMISTMRPDIDNMDEYVRNTTARAFAVVASALGIPSLLPFLKAVCKSKKSWQARHTGIKIVQQIAILMGCAILPHLRSLVEIIEHGLVDEQQKVRTISALAIAALAEAATPYGIESFDSVLKPLWKGIRQHRGKGLAAFLKAIGYLIPLMDAEYANYYTREVMLILIREFQSPDEEMKKIVLKVVKQCCGTDGVEANYIKTEILPPFFKHFWQHRMALDRRNYRQLVDTTVELANKVGAAEIISRIVDDLKDEAEQYRKMVMETIEKIMGNLGAADIDHKLEEQLIDGILYAFQEQTTEDSVMLNGFGTVVNALGKRVKPYLPQICGTVLWRLNNKSAKVRQQAADLISRTAVVMKTCQEEKLMGHLGVVLYEYLGEEYPEVLGSILGALKAIVNVIGMHKMTPPIKDLLPRLTPILKNRHEKVQENCIDLVGRIADRGAEYVSAREWMRICFELLELLKAHKKAIRRATVNTFGYIAKAIGPHDVLATLLNNLKVQERQNRVCTTVAIAIVAETCSPFTVLPALMNEYRVPELNVQNGVLKSLSFLFEYIGEMGKDYIYAVTPLLEDALMDRDLVHRQTASAVVQHMSLGVYGFGCEDSLNHLLNYVWPNVFETSPHVIQAVMGALEGLRVAIGPCRMLQYCLQGLFHPARKVRDVYWKIYNSIYIGSQDALIAHYPRIYNDDKNTYIRYELDYIL
B5: SF3B3_HUMAN (protein, UniProt Q15393 1-1217, looked up)
Splicing factor 3B subunit 3: MFLYNLTLQRATGISFAIHGNFSGTKQQEIVVSRGKILELLRPDPNTGKVHTLLTVEVFGVIRSLMAFRLTGGTKDYIVVGSDSGRIVILEYQPSKNMFEKIHQETFGKSGCRRIVPGQFLAVDPKGRAVMISAIEKQKLVYILNRDAAARLTISSPLEAHKANTLVYHVVGVDVGFENPMFACLEMDYEEADNDPTGEAAANTQQTLTFYELDLGLNHVVRKYSEPLEEHGNFLITVPGGSDGPSGVLICSENYITYKNFGDQPDIRCPIPRRRNDLDDPERGMIFVCSATHKTKSMFFFLAQTEQGDIFKITLETDEDMVTEIRLKYFDTVPVAAAMCVLKTGFLFVASEFGNHYLYQIAHLGDDDEEPEFSSAMPLEEGDTFFFQPRPLKNLVLVDELDSLSPILFCQIADLANEDTPQLYVACGRGPRSSLRVLRHGLEVSEMAVSELPGNPNAVWTVRRHIEDEFDAYIIVSFVNATLVLSIGETVEEVTDSGFLGTTPTLSCSLLGDDALVQVYPDGIRHIRADKRVNEWKTPGKKTIVKCAVNQRQVVIALTGGELVYFEMDPSGQLNEYTERKEMSADVVCMSLANVPPGEQRSRFLAVGLVDNTVRIISLDPSDCLQPLSMQALPAQPESLCIVEMGGTEKQDELGERGSIGFLYLNIGLQNGVLLRTVLDPVTGDLSDTRTRYLGSRPVKLFRVRMQGQEAVLAMSSRSWLSYSYQSRFHLTPLSYETLEFASGFASEQCPEGIVAISTNTLRILALEKLGAVFNQVAFPLQYTPRKFVIHPESNNLIIIETDHNAYTEATKAQRKQQMAEEMVEAAGEDERELAAEMAAAFLNENLPESIFGAPKAGNGQWASVIRVMNPIQGNTLDLVQLEQNEAAFSVAVCRFSNTGEDWYVLVGVAKDLILNPRSVAGGFVYTYKLVNNGEKLEFLHKTPVEEVPAAIAPFQGRVLIGVGKLLRVYDLGKKKLLRKCENKHIANYISGIQTIGHRVIVSDVQESFIWVRYKRNENQLIIFADDTYPRWVTTASLLDYDTVAGADKFGNICVVRLPPNTNDEVDEDPTGNKALWDRGLLNGASQKAEVIMNYHVGETVLSLQKTTLIPGGSESLVYTTLSGGIGILVPFTSHEDHDFFQHVEMHLRSEHPPLCGRDHLSFRSYYFPVKNVIDGDLCEQFNSMEPNKQKNVSEELDRTPPEVSKKLEDIRTRYAF

System: KDM4A-I71AzF
Test: CASI: photo-crosslinking with HEK293T cell extracts, StrepTactin enrichment and LC-MS/MS proteomics;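 also: lysates from HEK293T cells pretreated with a KDM4 inhibitor to raise proteome methylation, affinity-purified after ±UV, gel-resolved, trypsin-digested, with exclusive unique peptides per protein averaged per condition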
Assay type: binding, human
Settings: sheet "Final results but with 0.01"

Molecule | Fold change (+UV/-UV)
B1 | 0.3333
B2 | 0.3333
B3 | 1.333
B4 | 2
B5 | 0.7381
